Assay [1] has as its system HER2-positive breast carcinoma cell line SUM190PT. Description: In vivo antitumor effect, SUM190PT subcutaneous transplant model. The note with it: 0.4 mg/kg, tail vein, on Day 32, female SCID mice. As to the method: (§1) The antitumor effects of the antibody-drug conjugates were evaluated by using animal models in which cells of a human tumor cell line had been transplanted into immunodeficient mice, or cells of a mouse tumor cell line had been transplanted into immunocompetent mice. 4 to 6 Week-old SCID mice (CB17/Icr-Prkdc[scid]/CrlCrlj, Jackson Laboratory Japan, Inc.), NSG mice (NOD.Cg-Prkdcscid Il2rgtm1Wjl/SzJ, Jackson Laboratory Japan, Inc.), or B6J mice (C57BL/6J, Jackson Laboratory Japan, Inc.) were habituated for 3 days or more under SPF conditions before experimental use. The mice were fed with sterilized solid feed and given sterilized tap water. The major and minor diameters of the transplanted tumors were measured twice a week with an electronic digital caliper (Mitutoyo Corporation), and the estimated tumor volume was calculated using the following formula. Estimated tumor volume (mm^3) = 1/2 × major diameter (mm) × [minor diameter (mm)]^2 All antibody-drug conjugates were diluted with ABS and administered into the tail vein at doses shown in each Example. In addition, ABS (vehicle) or control hIgG-PBD prepared in Reference Example 4 was administered as the control group, in a similar manner. 5 to 6 Mice were used per group in the experiment. […]

In assay [2] the test system is Head and neck carcinoma cell line Detroit 562. The experiment in a line: In vivo antitumor effect, Detroit 562 subcutaneous transplant model. The note with it: 0.4 mg/kg, tail vein, on Day 10, female SCID mice. As to the method: as §1, with “experiment. To analyze the LRRC15 expression in mouse tumor models, immunohistochemical staining of LRRC15 was performed.” for “experiment.”

B1: H02L01-V1-PBD (conjugate)
heavy: EVQLVESGGGLVQPGGSLRLSCAASGFTFRDYYMAWVRQAPGKGLEWVSSIGFDESRTYYADSVKGRFTISRDDSKNTLYLQMNSLRAEDTAVYYCARHGVSKYSGDNWFAYWGQGTLVTVSSASTKGPSVFPLAPSSKSTSGGTAALGCLVKDYFPEPVTVSWNSGALTSGVHTFPAVLQSSGLYSLSSVVTVPSSSLGTQTYICNVNHKPSNTKVDKKVEPKSCDKTHTCPPCPAPEAAGGPSVFLFPPKPKDTLMISRTPEVTCVVVDVSHEDPEVKFNWYVDGVEVHNAKTKPREEQYNSTYRVVSVLTVLHQDWLNGKEYKCKVSNKALAAPIEKTISKAKGQPREPQVYTLPPSREEMTKNQVSLTCLVKGFYPSDIAVEWESNGQPENNYKTTPPVLDSDGSFFLYSKLTVDKSRWQQGNVFSCSVMHEALHNHYTQKSLSLSPGK
light: DIQMTQSPSSLSASVGDRVTITCKSSQGLLYSGDQKNYLAWYQQKPGKAPKLLIYWASTRQSGVPSRFSGSGSGTDFTLTISSLQPEDFATYYCQQYYDPPYTFGQGTKVEIKRTVAAPSVFIFPPSDEQLKSGTASVVCLLNNFYPREAKVQWKVDNALQSGNSQESVTEQDSKDSTYSLSSTLTLSKADYEKHKVYACEVTHQGLSSPVTKSFNRGEC
For the molecule B1, the “antitumor effect (estimated tumor volume)” value in assay [1] was “antitumor activity higher than that of the vehicle and control hIgG-PBD”; in assay [2], “antitumor activity higher than that of the vehicle and control hIgG-PBD”.
